The source of these data is paper PMC4559334.

Common to all, as to test: EMSA
Settings in all cases: not stated in the material held
On the technique in general: A gel shift assay detects complexes by their altered migration in electrophoresis.

The subject of series [1] is ED-C-Ala (Escherichia coli).
The test system of series [2] is AlaRS full-length (Escherichia coli).
The test system of series [3] is C-Ala (Escherichia coli).

As to tRNAAla, 3'-labelled, the Kd (commonly a measure of binding affinity in units of concentration) in series [1] was determined as 2200 nM; in series [2] it was 3000 nM; in series [3], 800 nM.
